In patent US20220331457A1 (TELIX INTERNATIONAL, published 2022):

Legend:
[1] = molecular target: T1, human carbonic anhydrase IX (CAIX) (human, UniProt Q16790 38-414); assay: competition ELISA on coated CAIX; competitor: biotinylated chimeric Girentuximab IgG1
Protocol: CAIX was diluted in 1×PBS to 0.5 μg/ml and 100 μl/well was coated overnight at 4° C. on a 96-well ELISA plate. The following day, the plate was washed 3× with 1×PBS/0.05% Tween (PBST) and blocked with 200 μl of 2% BSA/PBS for one hour at room temperature.
After washing the plate 3× with PBS-T, 100 μl of chimeric/test antibody mix was added to the ELISA plate.
For colour development, the plate was washed 3× with PBS-T following which 100 μl of TMB substrate was added and incubated for approximately five minutes at room temperature. The reaction was stopped with 50 μl of 3.0 M hydrochloric acid and absorbance was read immediately using a Dynex plate reader at 450 nm.

[2] = molecular target: T1, human carbonic anhydrase IX (CAIX); assay: SPR (Biacore T200), multicycle kinetics; purified CHO-expressed antibody captured on Protein G chip, CAIX as analyte
Protocol: (§1) The purified antibodies were diluted to a concentration of 1 μg/ml in HBS-P+. […] Following capture, the surface was allowed to stabilise. Kinetic data was obtained using a flow rate of 30 μl/min to minimise any potential mass transfer effects. For the kinetics analysis, carbonic anhydrase IX (CAIX) was used. Multiple repeats of the blank (CAIX) and a repeat of a single concentration of the analyte were programmed into the kinetic run in order to check the stability of both the surface and analyte over the kinetic cycles. For kinetic analysis, a two-fold dilution range was selected from 50 nM to 0.078 nM CAIX. The association phase of CAIX was monitored for 280 seconds and the dissociation phase was monitored for 300 seconds. Regeneration of the Protein G surface was conducted using an injection of 10 mM glycine-HCL pH 1.5 followed by an injection of 10 mM glycine-HCL pH 1.5 containing 0.5% P20. The signal from the reference channel Fc1 was subtracted from that of Fc2, Fc3 and Fc4 to correct for differences in non-specific binding to a reference surface, and a global Rmax parameter was used in the 1-to-1 binding model. The relative KD was calculated by dividing the KD of the humanised variants by that of the chimeric antibody on the same chip.

[3] = molecular target: T1, human carbonic anhydrase IX (CAIX); assay: Biacore multicycle kinetic analysis (conclusion of Example 1)
Protocol: as §1

[4] = molecular target: T1, human carbonic anhydrase IX (CAIX); assay: Biacore multicycle analysis and competition ELISA (conclusion of Example 1)
[5] = molecular target: T1, human carbonic anhydrase IX (CAIX); assay: SPR (Biacore T200), multicycle kinetics; purified antibody captured on Protein G chip, CAIX as analyte
Protocol: as §1

[6] = molecular target: T1, human carbonic anhydrase IX (CAIX); assay: SPR (Biacore T200), single cycle kinetics; antibody in HEK EBNA supernatant captured on Protein G chip, CAIX as analyte
Protocol: All single cycle kinetic experiments were run at 25° C. with HBS-P+ running buffer (pH 7.4) (GE Healthcare, Little Chalfont, UK). For direct comparison, all antibodies were captured on a Protein G chip (GE Healthcare, Uppsala, Sweden).
Antibodies were diluted in running buffer to a final concentration of 0.5 μg/ml, based on concentrations assessed by ELISA titre. At the start of each cycle, antibodies were loaded onto Fc2, Fc3 and Fc4 of the Protein G chip (GE Healthcare, Little Chalfont, UK). IgGs were captured at a flow rate of 10 μl/min to give an immobilisation level (RL) of ˜79 RU, the theoretical value to obtain an Rmax of ˜50 RU. The surface was then allowed to stabilise. Single cycle kinetic data was obtained with Carbonic Anhydrase IX (CAIX, Stratech, Newmarket, UK) as the analyte at a flow rate of 30 μl/min to minimise any potential mass transport limitations. […] The signal from the reference channel Fc1 (no antibody) was subtracted from that of Fc2, Fc3 and Fc4 to correct for differences in non-specific binding to a reference surface. […] The association phase for the four injections of increasing concentrations of CAIX was monitored for 200 seconds each time and a single dissociation phase was measured for 300 seconds following the last injection of CAIX. Regeneration of the Protein G surface was conducted using an injection of 10 mM glycine-HCL pH 1.5 followed by an injection of 10 mM glycine-HCL pH 1.5 containing 0.5% P20.

B1: Girentuximab humanised VH4/Vκ3 IgG1 (antibody)
heavy: not shown
light: DIQMTQSPSSLSASVGDRVTITCKASQNVVSAVAWYQQKPGQAPRLLIYSASNRYTGVPDRFSGSGSGTDFTLTISSLQAEDLADYFCQQYSNYPWTFGGGTKVEIKRTVAAPSVFIFPPSDEQLKSGTASVVCLLNNFYPREAKVQWKVDNALQSGNSQESVTEQDSKDSTYSLSSTLTLSKADYEKHKVYACEVTHQGLSSPVTKSFNRGEC
≤ 2 fold: relative IC50 (IC50 of the variant divided by IC50 of the Girentuximab chimeric IgG1 antibody on the same plate) [1] | relative KD (KD of the variant divided by KD of the chimeric antibody with the same IgG constant domain) [2] | binding relative to VH0/Vκ0 with the same IgG backbone [3] | binding relative to the IgG1 chimeric antibody [4] | relative KD (KD of the variant divided by KD of the chimeric antibody on the same chip) [5] | relative KD (against the reference chimeric VH0/Vκ0 IgG1) [6]

B2: Girentuximab humanised VH3/Vκ3 IgG1 (antibody)
heavy: not shown
light: DIQMTQSPSSLSASVGDRVTITCKASQNVVSAVAWYQQKPGQAPRLLIYSASNRYTGVPDRFSGSGSGTDFTLTISSLQAEDLADYFCQQYSNYPWTFGGGTKVEIKRTVAAPSVFIFPPSDEQLKSGTASVVCLLNNFYPREAKVQWKVDNALQSGNSQESVTEQDSKDSTYSLSSTLTLSKADYEKHKVYACEVTHQGLSSPVTKSFNRGEC
≤ 2 fold: relative IC50 (IC50 of the variant divided by IC50 of the Girentuximab chimeric IgG1 antibody on the same plate) [1] | binding relative to the IgG1 chimeric antibody [4] | relative KD (KD of the variant divided by KD of the chimeric antibody on the same chip) [5] | relative KD (against the reference chimeric VH0/Vκ0 IgG1) [6]

B3: Girentuximab humanised VH4/Vκ2 IgG1 (antibody)
heavy: not shown
light: DIVMTQSPSSLSASVGDRVTITCKASQNVVSAVAWYQQKPGQAPRLLIYSASNRYTGVPDRFTGSGSGTDFTLTISSLQAEDLADYFCQQYSNYPWTFGGGTKVEIKRTVAAPSVFIFPPSDEQLKSGTASVVCLLNNFYPREAKVQWKVDNALQSGNSQESVTEQDSKDSTYSLSSTLTLSKADYEKHKVYACEVTHQGLSSPVTKSFNRGEC
≤ 2 fold: relative IC50 (IC50 of the variant divided by IC50 of the Girentuximab chimeric IgG1 antibody on the same plate) [1] | binding relative to the IgG1 chimeric antibody [4] | relative KD (KD of the variant divided by KD of the chimeric antibody on the same chip) [5] | relative KD (against the reference chimeric VH0/Vκ0 IgG1) [6]

B4: Girentuximab humanised VH4/Vκ4 IgG1 (antibody)
heavy: not shown
light: DIQMTQSPSSLSASVGDRVTITCKASQNVVSAVAWYQQKPGQAPRLLIYSASNRYTGVPDRFSGSGSGTDFTLTISSLQAEDLADYYCQQYSNYPWTFGGGTKVEIKRTVAAPSVFIFPPSDEQLKSGTASVVCLLNNFYPREAKVQWKVDNALQSGNSQESVTEQDSKDSTYSLSSTLTLSKADYEKHKVYACEVTHQGLSSPVTKSFNRGEC
≤ 2 fold: relative IC50 (IC50 of the variant divided by IC50 of the Girentuximab chimeric IgG1 antibody on the same plate) [1] | relative KD (KD of the variant divided by KD of the chimeric antibody with the same IgG constant domain) [2] | binding relative to VH0/Vκ0 with the same IgG backbone [3] | binding relative to the IgG1 chimeric antibody [4] | relative KD (KD of the variant divided by KD of the chimeric antibody on the same chip) [5] | relative KD (against the reference chimeric VH0/Vκ0 IgG1) [6]

B5: Girentuximab humanised VH3/Vκ2 IgG1 (antibody)
heavy: not shown
light: DIVMTQSPSSLSASVGDRVTITCKASQNVVSAVAWYQQKPGQAPRLLIYSASNRYTGVPDRFTGSGSGTDFTLTISSLQAEDLADYFCQQYSNYPWTFGGGTKVEIKRTVAAPSVFIFPPSDEQLKSGTASVVCLLNNFYPREAKVQWKVDNALQSGNSQESVTEQDSKDSTYSLSSTLTLSKADYEKHKVYACEVTHQGLSSPVTKSFNRGEC
≤ 2 fold: relative IC50 (IC50 of the variant divided by IC50 of the Girentuximab chimeric IgG1 antibody on the same plate) [1] | binding relative to the IgG1 chimeric antibody [4] | relative KD (KD of the variant divided by KD of the chimeric antibody on the same chip) [5] | relative KD (against the reference chimeric VH0/Vκ0 IgG1) [6]

B6: Girentuximab humanised VH3/Vκ4 IgG1 (antibody)
heavy: not shown
light: DIQMTQSPSSLSASVGDRVTITCKASQNVVSAVAWYQQKPGQAPRLLIYSASNRYTGVPDRFSGSGSGTDFTLTISSLQAEDLADYYCQQYSNYPWTFGGGTKVEIKRTVAAPSVFIFPPSDEQLKSGTASVVCLLNNFYPREAKVQWKVDNALQSGNSQESVTEQDSKDSTYSLSSTLTLSKADYEKHKVYACEVTHQGLSSPVTKSFNRGEC
≤ 2 fold: relative IC50 (IC50 of the variant divided by IC50 of the Girentuximab chimeric IgG1 antibody on the same plate) [1] | relative KD (KD of the variant divided by KD of the chimeric antibody with the same IgG constant domain) [2] | binding relative to VH0/Vκ0 with the same IgG backbone [3] | binding relative to the IgG1 chimeric antibody [4] | relative KD (KD of the variant divided by KD of the chimeric antibody on the same chip) [5] | relative KD (against the reference chimeric VH0/Vκ0 IgG1) [6]

B7: Girentuximab humanised VH4/Vκ3 IgG4 (S228P, L235E, H310A, H435Q) (antibody)
heavy: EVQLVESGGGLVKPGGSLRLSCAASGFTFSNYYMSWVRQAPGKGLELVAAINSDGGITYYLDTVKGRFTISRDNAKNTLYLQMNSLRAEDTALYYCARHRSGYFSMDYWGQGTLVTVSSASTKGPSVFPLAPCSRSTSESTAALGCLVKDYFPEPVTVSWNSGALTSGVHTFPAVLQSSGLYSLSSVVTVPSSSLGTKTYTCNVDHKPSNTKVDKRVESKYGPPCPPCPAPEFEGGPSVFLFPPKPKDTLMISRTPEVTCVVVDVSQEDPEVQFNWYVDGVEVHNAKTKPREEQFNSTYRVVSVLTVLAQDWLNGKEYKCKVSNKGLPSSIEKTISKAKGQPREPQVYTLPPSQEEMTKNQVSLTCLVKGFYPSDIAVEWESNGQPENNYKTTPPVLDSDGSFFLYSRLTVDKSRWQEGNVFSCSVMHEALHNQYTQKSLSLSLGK
light: DIQMTQSPSSLSASVGDRVTITCKASQNVVSAVAWYQQKPGQAPRLLIYSASNRYTGVPDRFSGSGSGTDFTLTISSLQAEDLADYFCQQYSNYPWTFGGGTKVEIKRTVAAPSVFIFPPSDEQLKSGTASVVCLLNNFYPREAKVQWKVDNALQSGNSQESVTEQDSKDSTYSLSSTLTLSKADYEKHKVYACEVTHQGLSSPVTKSFNRGEC
≤ 2 fold: relative KD (KD of the variant divided by KD of the chimeric antibody with the same IgG constant domain) [2] | binding relative to VH0/Vκ0 with the same IgG backbone [3]

B8: Chimeric Girentuximab (VH0/Vκ0) IgG1 (H310A, H435Q) (antibody)
heavy: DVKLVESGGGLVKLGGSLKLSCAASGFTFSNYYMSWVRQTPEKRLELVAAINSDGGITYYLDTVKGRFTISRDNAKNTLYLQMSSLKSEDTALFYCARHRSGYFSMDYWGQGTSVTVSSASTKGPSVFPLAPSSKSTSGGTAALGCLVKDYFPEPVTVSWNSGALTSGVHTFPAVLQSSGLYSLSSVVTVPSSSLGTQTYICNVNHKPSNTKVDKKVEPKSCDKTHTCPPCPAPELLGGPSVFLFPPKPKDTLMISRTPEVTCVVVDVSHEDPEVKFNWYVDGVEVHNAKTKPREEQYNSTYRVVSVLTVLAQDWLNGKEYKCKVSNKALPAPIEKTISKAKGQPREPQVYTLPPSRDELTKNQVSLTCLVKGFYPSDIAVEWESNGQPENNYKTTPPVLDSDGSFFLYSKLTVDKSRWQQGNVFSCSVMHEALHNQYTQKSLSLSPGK
light: DIVMTQSQRFMSTTVGDRVSITCKASQNVVSAVAWYQQKPGQSPKLLIYSASNRYTGVPDRFTGSGSGTDFTLTISNMQSEDLADFFCQQYSNYPWTFGGGTKLEIKRTVAAPSVFIFPPSDEQLKSGTASVVCLLNNFYPREAKVQWKVDNALQSGNSQESVTEQDSKDSTYSLSSTLTLSKADYEKHKVYACEVTHQGLSSPVTKSFNRGEC
notes: Chimeric antibody on the FcRn-null IgG1 backbone; also called chimeric IgG1 (H310A, H435Q)
≤ 2 fold: relative IC50 (IC50 of the variant divided by IC50 of the Girentuximab chimeric IgG1 antibody on the same plate) [1] | relative KD (KD of the variant divided by KD of the chimeric antibody on the same chip) [5]

B9: Chimeric Girentuximab (VH0/Vκ0) IgG4 (S228P, L235E, H310A, H435Q) (antibody)
heavy: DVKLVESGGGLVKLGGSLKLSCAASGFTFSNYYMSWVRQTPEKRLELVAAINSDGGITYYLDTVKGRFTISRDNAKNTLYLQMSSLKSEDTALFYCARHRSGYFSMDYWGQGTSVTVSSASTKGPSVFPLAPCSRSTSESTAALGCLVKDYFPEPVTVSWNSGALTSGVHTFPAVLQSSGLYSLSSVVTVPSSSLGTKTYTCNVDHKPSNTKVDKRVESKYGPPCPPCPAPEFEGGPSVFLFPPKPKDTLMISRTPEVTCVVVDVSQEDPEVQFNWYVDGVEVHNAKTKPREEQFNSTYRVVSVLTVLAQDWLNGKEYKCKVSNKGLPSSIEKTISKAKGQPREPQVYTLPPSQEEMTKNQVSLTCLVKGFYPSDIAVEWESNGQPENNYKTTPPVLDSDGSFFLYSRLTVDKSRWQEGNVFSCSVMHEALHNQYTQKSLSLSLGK
light: DIVMTQSQRFMSTTVGDRVSITCKASQNVVSAVAWYQQKPGQSPKLLIYSASNRYTGVPDRFTGSGSGTDFTLTISNMQSEDLADFFCQQYSNYPWTFGGGTKLEIKRTVAAPSVFIFPPSDEQLKSGTASVVCLLNNFYPREAKVQWKVDNALQSGNSQESVTEQDSKDSTYSLSSTLTLSKADYEKHKVYACEVTHQGLSSPVTKSFNRGEC
notes: Chimeric antibody on the FcRn- and FcRγ-null IgG4 backbone; also called chimeric IgG4 (S228P, L235E, H310A, H435Q)
≤ 2 fold: relative IC50 (IC50 of the variant divided by IC50 of the Girentuximab chimeric IgG1 antibody on the same plate) [1] | relative KD (KD of the variant divided by KD of the chimeric antibody on the same chip) [5]
